Data from patent US20260001928A1 (CORTERIA PHARMACEUTICALS, priority 2022, published 2026).
*1 amine or outer side, *2 acyl side, *3 side chain or, on linkers, in order; H or OH if unused. Where no end group is shown, it is not given here. Side-chain parts run from the residue outwards. [ ]: non-standard residue; d: D form. The star is where a group is joined. C20 diacid = O=C(O)CCCCCCCCCCCCCCCCCCC(=O)*; γGlu = O=C(O)[C@H](CCC(=O)[*:2])N[*:1]; NMeI = CC[C@H](C)[C@H](NC)C(=O)O; AEEA = NCCOCCOCC(=O)O; Aib = CC(C)(N)C(=O)O

What was measured:
[1] = molecular target: T1, CRF1R (corticotropin-releasing factor receptor 1), on the CRF1R-overexpression CHO-K1 cell line clone 2 (UniProt P34998 24-415, limits assumed); experiment: cell-based or functional assay
T1 sequence (looked up): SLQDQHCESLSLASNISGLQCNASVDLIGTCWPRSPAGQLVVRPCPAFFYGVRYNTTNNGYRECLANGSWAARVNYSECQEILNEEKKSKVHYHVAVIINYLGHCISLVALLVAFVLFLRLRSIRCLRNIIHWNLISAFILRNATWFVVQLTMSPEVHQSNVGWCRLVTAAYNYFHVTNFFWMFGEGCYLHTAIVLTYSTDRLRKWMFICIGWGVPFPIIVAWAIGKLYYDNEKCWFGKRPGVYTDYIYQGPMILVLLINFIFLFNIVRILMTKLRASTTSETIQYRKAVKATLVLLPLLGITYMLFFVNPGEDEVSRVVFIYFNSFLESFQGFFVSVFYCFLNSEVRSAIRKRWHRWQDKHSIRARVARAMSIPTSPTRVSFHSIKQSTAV

[2] = molecular target: Rat CRF2 a (corticotropin-releasing factor receptor 2), on the A7R5 rat aortic smooth muscle cell line (rat, UniProt P47866 20-411); experiment: cell-based or functional assay
Sequence of Rat CRF2 a (corticotropin-releasing factor receptor 2), on the A7R5 rat aortic smooth muscle cell line (P47866 20-411): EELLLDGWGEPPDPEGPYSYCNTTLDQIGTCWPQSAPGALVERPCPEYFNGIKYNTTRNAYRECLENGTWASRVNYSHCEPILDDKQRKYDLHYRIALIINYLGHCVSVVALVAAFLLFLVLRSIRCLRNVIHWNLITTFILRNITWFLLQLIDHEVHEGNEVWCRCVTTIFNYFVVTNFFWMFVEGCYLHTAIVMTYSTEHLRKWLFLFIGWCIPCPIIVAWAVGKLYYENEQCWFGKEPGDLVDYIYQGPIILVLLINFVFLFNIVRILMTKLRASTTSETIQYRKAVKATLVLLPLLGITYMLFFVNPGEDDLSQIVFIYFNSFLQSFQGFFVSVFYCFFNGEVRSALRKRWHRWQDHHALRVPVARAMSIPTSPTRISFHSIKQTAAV

B1: peptide of SEQ ID NO: 234 (peptide)
peptide: [NMeI]VLSLD[dV]PIKLK([AEEA-γGlu-C20 diacid])KILLEQEKQK[Aib]QREQAETN[Aib]QILAQV-NH2
modifications: N-terminus assumed
SMILES: CC[C@H](C)[C@H](NC)C(=O)N[C@H](C(=O)N[C@@H](CC(C)C)C(=O)N[C@@H](CO)C(=O)N[C@@H](CC(C)C)C(=O)N[C@@H](CC(=O)O)C(=O)N[C@@H](C(=O)N1CCC[C@H]1C(=O)N[C@H](C(=O)N[C@@H](CCCCN)C(=O)N[C@@H](CC(C)C)C(=O)N[C@@H](CCCCNC(=O)COCCOCCNC(=O)CC[C@H](NC(=O)CCCCCCCCCCCCCCCCCCC(=O)O)C(=O)O)C(=O)N[C@@H](CCCCN)C(=O)N[C@H](C(=O)N[C@@H](CC(C)C)C(=O)N[C@@H](CC(C)C)C(=O)N[C@@H](CCC(=O)O)C(=O)N[C@@H](CCC(N)=O)C(=O)N[C@@H](CCC(=O)O)C(=O)N[C@@H](CCCCN)C(=O)N[C@@H](CCC(N)=O)C(=O)N[C@@H](CCCCN)C(=O)NC(C)(C)C(=O)N[C@@H](CCC(N)=O)C(=O)N[C@@H](CCCNC(=N)N)C(=O)N[C@@H](CCC(=O)O)C(=O)N[C@@H](CCC(N)=O)C(=O)N[C@@H](C)C(=O)N[C@@H](CCC(=O)O)C(=O)N[C@H](C(=O)N[C@@H](CC(N)=O)C(=O)NC(C)(C)C(=O)N[C@@H](CCC(N)=O)C(=O)N[C@H](C(=O)N[C@@H](CC(C)C)C(=O)N[C@@H](C)C(=O)N[C@@H](CCC(N)=O)C(=O)N[C@H](C(N)=O)C(C)C)[C@@H](C)CC)[C@@H](C)O)[C@@H](C)CC)[C@@H](C)CC)C(C)C)C(C)C
[1]
  EC50 [nM] (cAMP, CRF1R-overexpression CHO-K1 cells): > 250 nM
  Emax (% I) (cAMP, 100% = Sauvagine at 100 nM): 15 % I
[2]
  EC50 [nM] 0% HSA (cAMP, A7R5 rat aortic smooth muscle cells): 0.05 nM

B2: peptide of SEQ ID NO: 231 (peptide)
peptide: Ac-IVLSLD[dV]PIKLK([AEEA-γGlu-C20 diacid])KILLEQEKQKEQREQAETN[Aib]QILAQV-NH2
SMILES: CC[C@H](C)[C@H](NC(C)=O)C(=O)N[C@H](C(=O)N[C@@H](CC(C)C)C(=O)N[C@@H](CO)C(=O)N[C@@H](CC(C)C)C(=O)N[C@@H](CC(=O)O)C(=O)N[C@@H](C(=O)N1CCC[C@H]1C(=O)N[C@H](C(=O)N[C@@H](CCCCN)C(=O)N[C@@H](CC(C)C)C(=O)N[C@@H](CCCCNC(=O)COCCOCCNC(=O)CC[C@H](NC(=O)CCCCCCCCCCCCCCCCCCC(=O)O)C(=O)O)C(=O)N[C@@H](CCCCN)C(=O)N[C@H](C(=O)N[C@@H](CC(C)C)C(=O)N[C@@H](CC(C)C)C(=O)N[C@@H](CCC(=O)O)C(=O)N[C@@H](CCC(N)=O)C(=O)N[C@@H](CCC(=O)O)C(=O)N[C@@H](CCCCN)C(=O)N[C@@H](CCC(N)=O)C(=O)N[C@@H](CCCCN)C(=O)N[C@@H](CCC(=O)O)C(=O)N[C@@H](CCC(N)=O)C(=O)N[C@@H](CCCNC(=N)N)C(=O)N[C@@H](CCC(=O)O)C(=O)N[C@@H](CCC(N)=O)C(=O)N[C@@H](C)C(=O)N[C@@H](CCC(=O)O)C(=O)N[C@H](C(=O)N[C@@H](CC(N)=O)C(=O)NC(C)(C)C(=O)N[C@@H](CCC(N)=O)C(=O)N[C@H](C(=O)N[C@@H](CC(C)C)C(=O)N[C@@H](C)C(=O)N[C@@H](CCC(N)=O)C(=O)N[C@H](C(N)=O)C(C)C)[C@@H](C)CC)[C@@H](C)O)[C@@H](C)CC)[C@@H](C)CC)C(C)C)C(C)C
[1]
  EC50 [nM] (cAMP, CRF1R-overexpression CHO-K1 cells): > 250 nM
  Emax (% I) (cAMP, 100% = Sauvagine at 100 nM): 10 % I
[2]
  EC50 [nM] 0% HSA (cAMP, A7R5 rat aortic smooth muscle cells): 1.32 nM

B3: peptide of SEQ ID NO: 232 (peptide)
peptide: Ac-IVLSLD[dV]PIKLK([AEEA-γGlu-C20 diacid])KILLEQEKQKAQREQAETN[Aib]QILAQV-NH2
SMILES: CC[C@H](C)[C@H](NC(C)=O)C(=O)N[C@H](C(=O)N[C@@H](CC(C)C)C(=O)N[C@@H](CO)C(=O)N[C@@H](CC(C)C)C(=O)N[C@@H](CC(=O)O)C(=O)N[C@@H](C(=O)N1CCC[C@H]1C(=O)N[C@H](C(=O)N[C@@H](CCCCN)C(=O)N[C@@H](CC(C)C)C(=O)N[C@@H](CCCCNC(=O)COCCOCCNC(=O)CC[C@H](NC(=O)CCCCCCCCCCCCCCCCCCC(=O)O)C(=O)O)C(=O)N[C@@H](CCCCN)C(=O)N[C@H](C(=O)N[C@@H](CC(C)C)C(=O)N[C@@H](CC(C)C)C(=O)N[C@@H](CCC(=O)O)C(=O)N[C@@H](CCC(N)=O)C(=O)N[C@@H](CCC(=O)O)C(=O)N[C@@H](CCCCN)C(=O)N[C@@H](CCC(N)=O)C(=O)N[C@@H](CCCCN)C(=O)N[C@@H](C)C(=O)N[C@@H](CCC(N)=O)C(=O)N[C@@H](CCCNC(=N)N)C(=O)N[C@@H](CCC(=O)O)C(=O)N[C@@H](CCC(N)=O)C(=O)N[C@@H](C)C(=O)N[C@@H](CCC(=O)O)C(=O)N[C@H](C(=O)N[C@@H](CC(N)=O)C(=O)NC(C)(C)C(=O)N[C@@H](CCC(N)=O)C(=O)N[C@H](C(=O)N[C@@H](CC(C)C)C(=O)N[C@@H](C)C(=O)N[C@@H](CCC(N)=O)C(=O)N[C@H](C(N)=O)C(C)C)[C@@H](C)CC)[C@@H](C)O)[C@@H](C)CC)[C@@H](C)CC)C(C)C)C(C)C
[1]
  EC50 [nM] (cAMP, CRF1R-overexpression CHO-K1 cells): > 250 nM
  Emax (% I) (cAMP, 100% = Sauvagine at 100 nM): 13 % I
[2]
  EC50 [nM] 0% HSA (cAMP, A7R5 rat aortic smooth muscle cells): 0.4 nM

B4: peptide of SEQ ID NO: 233 (peptide)
peptide: [NMeI]VLSLD[dV]PIKLK([AEEA-γGlu-C20 diacid])KILLEQEKQKEQREQAETN[Aib]QILAQV-NH2
modifications: N-terminus assumed
SMILES: CC[C@H](C)[C@H](NC)C(=O)N[C@H](C(=O)N[C@@H](CC(C)C)C(=O)N[C@@H](CO)C(=O)N[C@@H](CC(C)C)C(=O)N[C@@H](CC(=O)O)C(=O)N[C@@H](C(=O)N1CCC[C@H]1C(=O)N[C@H](C(=O)N[C@@H](CCCCN)C(=O)N[C@@H](CC(C)C)C(=O)N[C@@H](CCCCNC(=O)COCCOCCNC(=O)CC[C@H](NC(=O)CCCCCCCCCCCCCCCCCCC(=O)O)C(=O)O)C(=O)N[C@@H](CCCCN)C(=O)N[C@H](C(=O)N[C@@H](CC(C)C)C(=O)N[C@@H](CC(C)C)C(=O)N[C@@H](CCC(=O)O)C(=O)N[C@@H](CCC(N)=O)C(=O)N[C@@H](CCC(=O)O)C(=O)N[C@@H](CCCCN)C(=O)N[C@@H](CCC(N)=O)C(=O)N[C@@H](CCCCN)C(=O)N[C@@H](CCC(=O)O)C(=O)N[C@@H](CCC(N)=O)C(=O)N[C@@H](CCCNC(=N)N)C(=O)N[C@@H](CCC(=O)O)C(=O)N[C@@H](CCC(N)=O)C(=O)N[C@@H](C)C(=O)N[C@@H](CCC(=O)O)C(=O)N[C@H](C(=O)N[C@@H](CC(N)=O)C(=O)NC(C)(C)C(=O)N[C@@H](CCC(N)=O)C(=O)N[C@H](C(=O)N[C@@H](CC(C)C)C(=O)N[C@@H](C)C(=O)N[C@@H](CCC(N)=O)C(=O)N[C@H](C(N)=O)C(C)C)[C@@H](C)CC)[C@@H](C)O)[C@@H](C)CC)[C@@H](C)CC)C(C)C)C(C)C
[1]
  EC50 [nM] (cAMP, CRF1R-overexpression CHO-K1 cells): > 250 nM
  Emax (% I) (cAMP, 100% = Sauvagine at 100 nM): 8 % I
[2]
  EC50 [nM] 0% HSA (cAMP, A7R5 rat aortic smooth muscle cells): 0.37 nM
